These results are taken from patent US20150218281A1 (Ablynx, published 2015).

Test [1] deals with T1, biotinylated hOX40L (R&D Systems, biotinylated in house) (human, UniProt P23510 51-183, biotinylated with Sulfo-NHS-LC-Biotin, sites not stated).
T1 construct: same bought protein as m10, biotinylated; also called biotinylated OX40L
T1 sequence: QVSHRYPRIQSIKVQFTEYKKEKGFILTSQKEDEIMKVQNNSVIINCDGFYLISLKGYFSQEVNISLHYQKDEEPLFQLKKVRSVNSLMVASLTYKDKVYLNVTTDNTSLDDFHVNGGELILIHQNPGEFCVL
Briefly: hOX40L/hOX40 AlphaScreen, assay 3, native. The protocol:
Next, streptavidin donor beads were added and incubated for an additional 1 hour. Fluorescence was measured by reading plates on the EnVision Multilabel Plate Reader using an excitation wavelength of 680 nm and an emission wavelength of 520 nm.
In the TSA assay, Nanobodies were diluted to a concentration of 0.2 mg/ml and melting temperature (Tm) was determined at different pH by stepwise increase in temperature in presence of Sypro Orange, a dye that binds to […] residues that become exposed upon unfolding of the protein, using the Lightcycler (Roche) for detection. […] In SEC analysis, the Nanobodies were analyzed on a Phenomenex matrix to allow detection of multimers, aggregates or ‘stickyness’.
A general note: Alpha assays give light when donor and acceptor beads are brought close together.

Test [2] deals with T2, recombinant human OX40L (extracellular domain, R&D Systems) (human, UniProt P23510 51-183).
T2 sequence: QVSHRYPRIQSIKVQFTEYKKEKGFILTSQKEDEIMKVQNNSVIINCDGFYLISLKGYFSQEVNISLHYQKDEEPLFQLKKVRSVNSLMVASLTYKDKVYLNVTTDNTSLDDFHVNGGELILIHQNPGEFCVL
Put plainly: cell-based or functional assay.

B1: OX40L15B07 (VHH)
VHH: EVQLVESGGGLVQAGGSLRLSCAASRSIGRLDRMGWYRHRTGEPRELVATITGGSSINYGDFVKGRFTISIDNAKNTVYLQMNNLKPEDTAVYYCNFNKYVTSRDTWGQGTQVTVSS
notes: monovalent Nanobody from E. coli; not shown: C-terminal c-myc and His6 tag
On to B1, for which, in test [1], the IC50 (as a rule, the point on the concentration scale where inhibition reaches its midpoint) came out at 0.077 nM.

B2: OX40L01E07 (VHH)
VHH: EVQLVESGGGLVQAGGSLRLSCAASGRTFSSIYAKGWFRQAPGKEREFVAAISRSGRSTSYADSVKGRFTISRDNAKNTVYLQMNSLKPEDTAVYYCAAVGGATTVTASEWDYWGLGTQVTVSS
notes: as for B1
For B2, the “IC50, T cell assay with rec. hOX40L” value in test [2] was 1.48 nM.
